From the DeepSol protein solubility set come the findings set out here.

A short description of the data set: soluble on expression in E. coli; label from the status in PepcDB or PDB records.
Regarding “MSSECDGGSKAVMNGLAPGSNGQDKDMDPTKICTGKGAVTLRASSSYRETPSSSPASPQETRQHESKPGLEPEPSSADEWRLSSSADANGNAQPSSLAAKGYRSVHPNLPSDKSQDSSPLLNEVSSSLIGTDSQAFPSVSKPSSAYPSTTIVNPTIVLLQHNREQQKRLSSLSDPVSERRVGEQDSAPTQEKPTSPGKAIEKRAKDDSRRVVKSTQDLSDVSMDEVGIPLRNTERSKDWYKTMFKQIHKLNRDDDSDLYSPRYSFSEDTKSPLSVPRSKSEMSYIDGEKVVKRSATLPLPARSSSLKSSSERNDWEPPDKKVDTRKYRAEPKSIYEYQPGKSSVLTNEKMSRDISPEEIDLKNEPWYKFFSELEFGKPTNLDKDLSLCQTELEADLEKMETLNKAPSANVPQSSAISPTPEISSETPGYIYSSNFHAVKRESDGAPGDLTSLENERQIYKSVLEGGDIPLQGLSGLKRPSSSASTKVHSRTFNTSNALGPVCKHKKPLSAAKACISEILPSKFKPRLSAPSALLQEQKSILLPSEKAQSCENLCVSGSLNDSKRGLPLQVGGSIENLLMRSRRDYDSKSSSTMSLQEYSTSGRRPCPLSRKAGMQFTMLYRDMHQINRSGLFLGSISSSSSVRDLASHFEKSSLALSRGELGPSQEGSEHIPKHTVSSRITAFEQLIQRSRSMPSLDLSGRLSKSPTPVLSRGSLTSARSAESLLESTKLHPKEMDGMNSSGVYASPTCSNMAHHALSFRGLVPSEPLSTCSDDVDRCSNISTDSREGSGGSVHGDFPKHRLNKCKGTCPASYTRFTTIRKHEQQQTSRQPEWRLDARGDKSTLLRNIYLMSPLPFRLKKPLHHHPRQPSPGDSSGLLVGQKPDLPSQPHQDQPPSGGKPVVPTRLSSRHTMARLSRSSEPSQERPTALEDYPRAINNGNSVPYSDHSLDRNNNPQSELAPSRGDSESPRHFIPADYLESTEEFIRRRHDDKEMRPARAKFDFKAQTLKELPLQKGDIVYIYKQIDQNWYEGEHHGRVGIFPRTYIELLPPAEKAQPKKLTPVQVLEYGEAIAKFNFNGDTQVEMSFRKGERITLLRQVDENWYEGRIPGTSRQGIFPITYVDVIKRPLVKNPVDYMDLPFSSSPSRSATASPQQPQAQQRRVTPDRSQTSQDLFSYQALYSYIPQNDDELELRDGDIVDVMEKCDDGWFVGTSRRTKQFGTFPGNYVKPLYL”, the “soluble on expression in E. coli” value is on record as “soluble”. For “MSSEEQDVKIVTSDDVEFIVSPKIANQSKLLADFVVLNQREPIPLKNVTSEIFKKVIEWCEYHAEDIPKPPDNVEEKRTDDIGEWDVEFLKVDKGTLFELVLAATYLDIKGLFNVTCKSIANSIKGKSPEEIRAVFNLGNETNME” the value was “not soluble”.

As to “MSSIVCHPILDSQNGIATDAVIKKQRPPPLVLSRPKDLIQEACQRLVLSDQQLRRIMQSMEKSMEQGLATSTKKVAVKMLPTYVDSVPNGTESGDFLALDLGGTNFRVLHIKLQGKETKMTGKIFRVPESIMRGTGEALFDHIAGCMAKFMGENDLKDAQKLPLGFTFSFPCEQEGLTKGKLVTWTKGFKASGVEGVDVVTLLHEACHRRKDIDIDVVALLNDTVGTLMACAFQENSCQIGVIVGTGTNACYMERLDRIPKLAGYVDEHGVTPEEMIINTEWGAFGDDGALDFLRTEWDEVVDRESINPGQHLYEKMISGMYMGECARVVLEDLAKQGLLFGGNSDAISVPHCFPTKFVSEIDSDLLEDDDRTFQKTYQILEDIGVEMITANDCANVAYVCSLISTRAAHLTAAGIAMLLNRMNKKHVTVGVDGSVYRFHPTYPTLLDAKIGELIVGDIEYKLMLSEDGSGRGAALVAAVATRLKEEKLAASLSSSSSNQ”, the “soluble on expression in E. coli” value was “not soluble”. “MSSKEQKTPNEQVSEEMENTAEQQVEATQETGECVDPRVAELEVQLSDALQRERESLLRAKAEVENIRRRTELDVEKAHKFALERFSSELLPVIDNLERALDTADKTNTELISMIEGVELTLKSLLDAVGKFGIEVVGETHVPFNPEVHQAMTMLESADHEPNHVMMVMQKGYTLNGRLLRPAMVAVSKAKS”: the “soluble on expression in E. coli” value is listed as “not soluble”. In the case of “MSSKPKYVQDQEMIPGVYWVGIVDWMVRIFHGYHTDEGSSYNSYFIDDECPTVIDSVKYPFAEEWLSRIAACCPLDKIKYVVMNHAEGDHASSLKDHYHKFTNATFVCTKKCQEHLKILYGMEKATWLIVDDKYTLKIGKRTLKFIPVPLLHWPDSTFTYCPEDKILFSNDGFGQHYATSRRWADECDVSHVMHLFKEYTANILGLFSAQMRKALEVASTVEIKYILSAHGVSWRGDAMGLAIAEYDRWSKGQHCQKKVTVVLDSMYGTTHRMALALLDGARSTGCETVLLEMTSSDITKVALHTYDSGAVAFASPTLNNTMMPSVAAALNYVRGLTLIKGKPAFAFGAFGWSNRAVPDIVAELRDGCKADVYDEKGITFKFNYTEELLEQAYNAGVDLGKRAIAYCEKNAPKQ”, the “soluble on expression in E. coli” value was “soluble”.

Regarding “MSSPSFPRVLIFDSGVGGLSVYREIEARLPQLNYIYLFDNAAYPYGELTQETLIARVDTLVTRMVEQERIDLVVIACNTASTIVLPVLRAKLTIPVVGVVPAIKPASLIASKAIGLIATPATVKRQYTQELIRDFSANKNVELLGSTRLVNMAEEKLRGKPLDLEELASILQPLKNTIDVAVLGCTHFPLIKEEIQQVLGEQVQLIDSGLAIARRVQELLGIEQAVGAKQKHRIYASAPPWEESALNIKLEQLGFNPVQPFLHPI”, the “soluble on expression in E. coli” value is “not soluble”. For the sequence “MSSRIRINTKSLLVQPGYSGSKMRDRLFFLLSKYGIRPRDSIGQHFLIIEDVIEKAIETANVNENDVILEVGPGLGFLTDELAKRAKKVYTIEIDQKIIEILKKEYSWNNVKIIQGDAVRVEWPKFNKVVSNIPYKISSPFTFKLLKTDFERAVVMYQLEFALRMVAKPGSRNYSRLSLMAQALGNVEIVMKIGKGAFYPRPKVDSALVLIEPRKDKIVLNENLVKALFQHRRKTVPRALKDSIHMLGVSKDEIRGIINNVPHSNKRVFQLYPEEVKDIEEYLKKHGIIS”, the “soluble on expression in E. coli” value is “soluble”.

For the sequence “MSSSGNGRSNNDRADQLRREEQERKDRELAERLQREQSDDTPPAVARRGRNRAAARERASPYSRSRIRSTAGTSDAGPSSSSSVRGRGTRGTTSARRGRGSARGGEATMNRTRANQQISESPNRRRSTRQTRNPNPQMQFEGDRVQVRQGDEIRDITAETYFPDDDDDSDYTQSDNEEEEERNATITISSSESDADSEAESDHEERDMPRAFNPRGSYARSGRGPGGRGRVITPGRYRGSGQHNISADYIRDLLHSRIYPDNPRRDPLYRSGLNNEDESDPENVDADSDDDEAQSNGSSVIDLSDDDDVLIIGGRGAVHADRNHIRQPIFDEDRVMYNHELELYHDEEEYIVPAAKPVSAGGKLVEPDSTWGDCTMCSNPPIKPQGCKKCLQFLGCTDCVRRWYAARKGSMEGSSCPLCRAPWTGRAGVLMMTTIQKNVKKAGITSANTSSDSSLPSTSSLPNN”, the “soluble on expression in E. coli” value is reported as “not soluble”. For “MSSSSGNQNSKEHKVAVTHDLGKTNVPEHPKRVVVLELGFIDTLLDLGITPVGVADDNKAKQLINKDVLKKIDGYTSVGTRSQPSMEKIASLKPDLIIADTTRHKKVYDQLKKIAPTIALNNLNADYQDTIDASLTIAKAVGKEKEMEKKLTAHEEKLSETKQKISANSQSVLLIGNTNDTIMARDENFFTSRLLTQVGYRYAISTSGNSDSSNGGDSVNMKMTLEQLLKTDPDVIILMTGKTDDLDADGKRPIEKNVLWKKLKAVKNGHVYHVDRAVWSLRRSVDGANAILDELQKEMPAAKKLEHHHHHH” the value was “not soluble”; for “MSSSSPGEPLEPTDQDLDVLLKNLGNLVTPMALRVAATLRLVDHLLAGADTLAGLADRTDTHPQALSRLVRHLTVVGVLEGGEKQGRPLRPTRLGMLLADGHPAQQRAWLDLNGAVSHADLAFTGLLDVVRTGRPAYAGRYGRPFWEDLSADVALADSFDALMSCDEDLAYEAPADAYDWSAVRHVLDVGGGNGGMLAAIALRAPHLRGTLVELAGPAERARRRFADAGLADRVTVAEGDFFKPLPVTADVVLLSFVLLNWSDEDALTILRGCVRALEPGGRLLVLDRADVEGDGADRFFSTLLDLRMLTFMGGRVRTRDEVVDLAGSAGLALASERTSGSTTLPFDFSILEFTAVSEEAAPAAQASEALPAQE”, “soluble”.

For “MSTAEQRMDTSEVELPNDNVNEQGNKTPRADQPESSASGARNHGEDEEVTEQVELAAMETEASDSIVDNVPKTPRRAGRPKKLPSTSTAAAESAVTPGKRGRKRKGSESVNTTINSTMNSTLNEPKTPGRKQAKLVAPLLTYDLFAPSIIGDRVLSCGEGEALGHPGRTTTKKPRKVDIFEEEGLKPLQAVAGGVHSAVLTSEGEVYMCGINEKGTVPAEGVEKEGSTDEFAKVKFEEDIEKEGKIVMLAAGASFTAALTDQGSVIAWGNLRNSNGNVDVHPLLHKMQEAPVVIVHQAKRKIVKIAAGENHLVMLDEKGCLLTFGDGEMGQLGRSSRTKTIRSKYMCDESGDHLLVPLRFKHKGKFFDVVAKNVFASGFWTIVHGEDGKYYAFGLNNYAQLGIKVDEADVGQDGQDNRELRVFLPAEAPAFGAERTFVNIEGVQHVVILGSDGKVFAMGKNTDNALGLGNWTGKDDQQHWLYDTIQEIEFDSKIVGVSAKLATSIAWSEDGTAYAWGFDTTGQLGLGLKDEDEKMVSKPEEISSAHLDGYSIIGASISDQHTLIIAKKN”, the “soluble on expression in E. coli” value is recorded as “soluble”. As for “MSTDSQNPVRKSCAQPHSCSQEVRLKAMSRSPLTKGLNQLEHLELDKSLTAWSWAEDDPLYLAGENLNGSYLIVAGRVRVSRDTIDGKELTVDIATPGDVIGAIDTEPQPAVDSAWAIETTCALFLPATALATVIEQHPSFALAMIRMQQQRLATARDHEINLTTTTVEQRVAIAVRTLGRKIGQRRPDGILLIQVRIRREDVAGLAGTTVESTSRVLARLRKEGVIDSGREWIAVVDERQLDAIIGEDF”, the “soluble on expression in E. coli” value was “not soluble”.

As to “MSTETDSILAAFEKFNTIIIHRHINPDPDAIGSQTGLALLLRAAYPAKTIYTAGPAAPDLAWIGPQQQVSAEAYTGALVVVIDTSNRERIAGDHFDQGAMLIKIDHHLDEDQLGTINWVDTHASSASEMVWDLVRHSPQLQLTKAAATALYAGIIGDTGRFLYDLTTARTHQAAADLLATGIDAAAIGRQEDQFPENVGRLIGWALENVKITDTGAGSLLITKAVLAQFGLAYGEEQRAVGNIGKLASIDRWVVFTERTDGSYRVELRGKTKEINTLAVQHGGGGHPLASGAVADNAAELHAIEEELASLLEHHHHHH”, the “soluble on expression in E. coli” value is listed as “soluble”.

With “MSTQTVTIKSLGAQGDGIAHCPDGPVYVPFALPGETVAIAKVKDQGTVMSITEASADRRDPVCRHFGPEGINGTCGGCSLQHLADQPYHAFKRELVVSALRSKGLTPPVDDLVICRPGERRRAVFAARKTEKGLLLGFSQANSHHIVAIEECPVTSPGIVSRFDAIRAIGLSMVANAEPFRITVLETLSGLDISVEGIKSVNDKQRRTLTETVLAMRGIARVSLSGEILIEPQKPIIEFGGIPVSPPAGGFTQATKQAEDAMAELMLAHVGKSKRIADLFCGSGTFALRLARIGRVHAVEAEDKALKALDFAARNTQGLKPVSVEKRDLFRRPLMTSELKNYDAVVFDPPRAGAEVQCKELARSTVKKIVAVSCNPLTLARDLAILTEGGYRVTRVTPVDQFLWSPHVEAVAVLEK”, the “soluble on expression in E. coli” value was “not soluble”. “MSTSKRPYKILLRKVESKEENKKDTNETKKKEEESKHYEDRHYRKNDIKHYEENEKTIKSKMHYNSRNRYYDKYSMSYSRYDEKLNKQHSSEKKKDVLVPLLEQASINIKKKKIIIRKLPPTLTEENFFDSFSNNIKDELDYYYFVNGSASKDSSNDIIYSRMYLSFKDDMKTDEFIRTQNGKFFYDLNGVKYKALVSYAPNQTLIKKNKPDSRNNTLESDEYFLKCCEEMNNPVQRVKKDIDYSELINVQTENGAILSPIVIELRSKKKK”: the “soluble on expression in E. coli” value is “not soluble”. With “MSTSTVETGYGGRIRVTVARNDRDITSEVRTFLCNKENANKIIGLDTERSVVGGDSEYPPESKLVILELSDGQNCLIIPLPYVQGNKLPVSLTNFLNLPDFTFTGVGINKALKMLKSECGLTCKNAVDIGPSSPIYEDWDNDSLTEDQINLAAANAYLAFKVGNLIREAMY”, the “soluble on expression in E. coli” value was “soluble”.
